# Experimental data reported in patent US20170129940A1 (INSTITUTE FOR RESEARCH IN BIOMEDICINE, published 2017).
# T1: hCMV UL128 (expressed in HEK293T cells) (human cytomegalovirus, UniProt P16837 28-171)
# T1 sequence: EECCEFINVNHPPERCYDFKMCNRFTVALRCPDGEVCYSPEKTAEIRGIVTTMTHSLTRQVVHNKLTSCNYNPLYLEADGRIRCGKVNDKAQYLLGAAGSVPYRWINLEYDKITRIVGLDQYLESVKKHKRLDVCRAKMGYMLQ
# T2: hCMV gM + gN (co-expressed in HEK293T cells) (human cytomegalovirus, UniProt P16733 1-372; P16795 22-138)
# T2 sequence 1: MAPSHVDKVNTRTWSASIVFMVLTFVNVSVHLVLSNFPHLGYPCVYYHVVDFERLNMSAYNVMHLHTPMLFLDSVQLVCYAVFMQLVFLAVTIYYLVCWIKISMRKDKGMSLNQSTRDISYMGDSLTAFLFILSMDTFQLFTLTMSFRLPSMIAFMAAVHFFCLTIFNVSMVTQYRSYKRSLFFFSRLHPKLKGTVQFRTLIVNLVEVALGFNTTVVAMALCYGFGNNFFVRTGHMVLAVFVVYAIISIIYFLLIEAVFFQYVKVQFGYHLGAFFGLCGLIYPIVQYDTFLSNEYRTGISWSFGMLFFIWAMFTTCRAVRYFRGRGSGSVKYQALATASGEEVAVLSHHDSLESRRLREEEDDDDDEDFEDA
# T2 sequence 2: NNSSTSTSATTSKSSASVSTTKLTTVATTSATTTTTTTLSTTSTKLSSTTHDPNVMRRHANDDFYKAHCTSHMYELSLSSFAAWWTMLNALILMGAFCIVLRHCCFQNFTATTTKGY
# Key:
# [1] = molecular target: T3, hCMV gH + gL + UL128 + UL130 (co-expressed in HEK293T cells) (human cytomegalovirus, UniProt P12824 24-743; P16832 31-278; P16837 28-171; P16772 1-214); experiment: cell-based or functional assay
# [2] = molecular target: T3, hCMV gH + gL + UL128 + UL130 …; experiment: cell-based or functional assay; remark: listed apart in the source
# [3] = molecular target: T4, hCMV gB (expressed in HEK293T cells) (human cytomegalovirus, UniProt P06473 32-906); experiment: cell-based or functional assay
# T4 sequence (P06473 32-906 limits assumed): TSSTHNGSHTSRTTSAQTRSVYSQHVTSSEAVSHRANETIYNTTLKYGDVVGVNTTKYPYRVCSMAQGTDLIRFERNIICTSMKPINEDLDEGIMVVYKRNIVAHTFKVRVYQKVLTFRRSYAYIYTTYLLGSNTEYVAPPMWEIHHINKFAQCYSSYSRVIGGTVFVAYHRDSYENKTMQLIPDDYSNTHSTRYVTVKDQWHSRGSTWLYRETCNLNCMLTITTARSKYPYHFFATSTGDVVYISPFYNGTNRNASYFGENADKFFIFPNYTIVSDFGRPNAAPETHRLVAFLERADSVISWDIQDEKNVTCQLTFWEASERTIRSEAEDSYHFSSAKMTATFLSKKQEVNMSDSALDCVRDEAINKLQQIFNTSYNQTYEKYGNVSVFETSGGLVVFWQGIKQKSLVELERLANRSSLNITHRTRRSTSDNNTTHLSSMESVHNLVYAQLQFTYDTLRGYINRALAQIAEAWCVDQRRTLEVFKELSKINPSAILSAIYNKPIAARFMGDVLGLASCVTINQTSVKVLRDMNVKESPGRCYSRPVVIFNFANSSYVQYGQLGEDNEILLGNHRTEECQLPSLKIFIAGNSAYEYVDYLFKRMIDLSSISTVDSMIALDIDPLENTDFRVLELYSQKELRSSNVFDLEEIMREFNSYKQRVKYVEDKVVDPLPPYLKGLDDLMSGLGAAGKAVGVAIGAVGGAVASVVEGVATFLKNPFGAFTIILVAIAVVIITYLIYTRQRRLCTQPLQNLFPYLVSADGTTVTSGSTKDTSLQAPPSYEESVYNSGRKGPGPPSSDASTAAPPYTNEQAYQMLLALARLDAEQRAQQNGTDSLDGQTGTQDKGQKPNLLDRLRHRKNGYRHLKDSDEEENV
# [4] = molecular target: T4, hCMV gB (expressed in HEK293T cells); experiment: cell-based or functional assay; remark: listed apart in the source
# [5] = molecular target: T4, hCMV gB (expressed in HEK293T cells); experiment: cell-based or functional assay; remark: listed apart in the source
# [6] = molecular target: T4, hCMV gB (expressed in HEK293T cells); experiment: competitor: 4H9-biotin; cell staining
# [7] = molecular target: T4, hCMV gB (expressed in HEK293T cells); experiment: competitor: 5F1-biotin; cell staining
# [8] = molecular target: T4, hCMV gB (expressed in HEK293T cells); experiment: competitor: 6B4-biotin; cell staining
# [9] = molecular target: T4, hCMV gB (expressed in HEK293T cells); experiment: competitor: 7H3-biotin; cell staining
# [10] = molecular target: T4, hCMV gB (expressed in HEK293T cells); experiment: competitor: 10C6-biotin; cell staining
# [11] = molecular target: T4, hCMV gB (expressed in HEK293T cells); experiment: competitor: 2B11-biotin; cell staining
# [12] = molecular target: T1, hCMV UL128 (expressed in HEK293T cells); experiment: cell-based or functional assay
# [13] = molecular target: T1, hCMV UL128 (expressed in HEK293T cells); experiment: cell-based or functional assay; remark: listed apart in the source
# [14] = molecular target: T2, hCMV gM + gN (co-expressed in HEK293T …); experiment: cell-based or functional assay
# [15] = molecular target: T2, hCMV gM + gN (co-expressed in HEK293T …); experiment: cell-based or functional assay; remark: listed apart in the source
Binder,50% Neutralization ARPE [3],50% Neutralization MRC-9 [3],90% Neutralization ARPE [4],90% Neutralization MRC-9 [4],50% Neutralization BM-MSC [5],50% Neutralization Mo-DC [5],Inhibition of binding (%) [6],Inhibition of binding (%) [7],Inhibition of binding (%) [8],Inhibition of binding (%) [9],Inhibition of binding (%) [10],Inhibition of binding (%) [11],further results
"8I21 (antibody, V domains shown) VH: LVELVESGGGVVQPGRSLRLSCAASGFTFSSDGMHWVRQSPGRGLEWVAFISSDGSTPYYADSVKGRFTISRDNSKNTLYLQMNSLRAEDTAMYFCAKDWALFRWLRTFDHWGQGTLVTVSS VL: not shown",,,,,,,,,,,,,50% Neutralization ARPE [1]: < 0.01 µg/mL; 50% Neutralization MRC-9 [1]: > 2 µg/mL; 90% Neutralization ARPE [2]: 0.03 µg/mL; 90% Neutralization MRC-9 [2]: > 10 µg/mL
"5F1 (antibody, V domains shown, human IgG; also called 5F1-biotin) VH: AVQLVESGGGLAQPGRSLRLSCKVSGFTFSSYEMNWVRQAPGKGLEWIAYIDFTGSTIYYADSVKGRFTISRDTARNSLYLQMNKLRVEDTAVYYCVRDAGRWGTSWYYFDYWGQGTLVTVSS VL: QSVLTQPPSVSGAPGQRVTISCTGLSSNIGAGYDIHWYQQIPGKAPKLLIYGNNNRPSGVPDRFSGSKSGTSVSLAITGLQAEDEADYYCQSYDSSLNGWVFGGGTRLTVL",≤ 2 µg/mL,≤ 2 µg/mL,0.1 µg/mL,0.5 µg/mL,0.3 µg/mL,0.05 µg/mL,100%,100%,0%,0%,100%,100%,
"10C6 (antibody, V domains shown, human IgG; also called 10C6-biotin) VH: AVQLVESGGGLAQPGRSLRLSCKVSGFSFSNFEMNWVRQAPGKGLEWIAYIDFTGSTIYYSDSVKGRFTISRDTARNSLYLQMNKLRVEDTAVYYCVRDAGRWGTSWYYFDYWGQGTLVTVSS VL: QSVLTQPPSVSGAPGQRVTISCTGLSSNIGAGYDIHWYQQIPGKAPKLLIYGNNNRPSGVPDRFSGSKSGTSVSLAITGLQAEDEADYYCQSYDSSLNGWVFGGGTRLTVL",≤ 2 µg/mL,≤ 2 µg/mL,0.2 µg/mL,0.75 µg/mL,0.3 µg/mL,0.02 µg/mL,100%,100%,0%,0%,100%,100%,
"2B11 (antibody, V domains shown, human IgG; also called 2B11-biotin) VH: AVRLVESGGGLAQPGRSLRLSCQVSGFTFGSYEMNWVRQAPGKGLEWIAYIDFTGSTIYYADSVKGRFTISRNTARNSLYLQMNSLRVEDTAVYYCVRDAGRWGTSWYYFDYWGQGTRVTVSP VL: QSVLTQPPSVSGAPGQRVTISCTGISSNIGAGYDIHWYQQIPGKAPKLLVYGNNNRPSGVPDRFSGSKSGTSVSLAITGLQVEDEADYYCQSYDNSLNGWVFGGGTRLTVL",,,0.2 µg/mL,0.75 µg/mL,,,100%,100%,0%,0%,100%,100%,
"6B4 (antibody, V domains shown, human IgG; also called 6B4-biotin) VH: QVQLVESGGGVVQPGRSLRLSCAASGFRFNEFNMHWVRQAPGKGLEWVAVISIDGRHKYNADSVEGRFTISRDNSRNTLYLQMNSLRVEDTALYYCVTDGKAVDGFSGILEFWGQGTPVTVST VL: EIVLTQSPATLSLSPGERATLSCWASQSVGGYLAWYQQKPGQAPRLLIYDASIRATGIPARFSGSGSGTHFTLTINSLEPEDFAVYYCQQRNNWPPLTFGGGTKVEIK",≤ 2 µg/mL,≤ 2 µg/mL,0.15 µg/mL,1 µg/mL,2 µg/mL,0.11 µg/mL,0%,0%,100%,0%,0%,0%,
"15D8 (antibody, V domains shown) VH: EVQLVQSGAEVKKPGESLKISCQASGYSFTNYWIAWVRQMPGKGLEWMGIIYPGDSDIKYSPSFRGQVTISADKSISNAFLQWRSLRASDTAMYYCARHAIRGDGFDYWGQGTLVTVSS VL: SYELTQPPSVSVSPGQTATITCSGDKLGEKYACWYQQKPGQSPVLVMYQDTKRPSGIPERFSGSNSGNTATLTISGTRAMDEADYYCQAWDTNTVIFGGGTKLTVL",,,,,,,,,,,,,50% Neutralization ARPE [12]: < 0.001 µg/mL; 50% Neutralization MRC-9 [12]: > 2 µg/mL; 90% Neutralization ARPE [13]: 0.008 µg/mL; 90% Neutralization MRC-9 [13]: > 10 µg/mL
"6L3 (antibody, V domains shown) VH: EVRLEESGGGLVQPGGSLRLSCAASGFTVSTTYMAWVRQAPGKGLEWVSLIHTGGIFGVGGTSYADSVKGRFTISRDTSKNTVSLQMSSLRVEDTAIYFCAREHRGTIDAFDAWGQGTVVIVSS VL: DIHMTQSPSSLSASVGDRVTITCRASQNIRNYLNWYQHKPGKAPKLLIYTTSRLQSGVPSRFSGSGSGTDFTLTVNSLQPEDFASYYCQQSYDGWTFGQGTKVEMK",,,,,,,,,,,,,50% Neutralization ARPE [14]: ≤ 2 µg/mL; 90% Neutralization ARPE [15]: 10 µg/mL; 90% Neutralization MRC-9 [15]: 30 µg/mL
"4H9 (antibody, V domains shown, human IgG; also called 4H9-biotin) VH: AVQLVESGGGLVRPGGSLRLSCAASGFTFSSHEMHWVRQAPGKGLEWLSYIDFTGSIIYYADSVRGRFTISRDNTKKSLFLQMNSLRDEDTALYYCARDGGRWGTSWYYFDYWGQGVLVTVSS VL: QSVLTQPPSVSGAPGQRVTITCTGSSSNFGAGYDGHWYQQLPGTAPKLLIYGSNRPSGVPDRFSGSKSGTSVSLAITGLQADDEADYYCQSYDSSLSAWVFGGGTKLTVL",≤ 2 µg/mL,≤ 2 µg/mL,0.4 µg/mL,10 µg/mL,,,100%,100%,0%,0%,100%,100%,
"7H3 (antibody, V domains shown, human IgG; also called 7H3-biotin) VH: QVQLVQSGAEVKNPGASVKVSCKASGYTFTDYYIHWVRQAPGQGLEWMGWFNPNSGGTNFVQNFQGRVTMTRDTSISTAYMELSRLRSDDTAMYYCAKDSAKTASAYYGLNFFYYGMDVWGQGTTVTVSS VL: QSVLSQPPSASGTPGQRVTISCSGSSSNIGKNYVYWYQQVPGTAPKLLMFKNNQRPSGVPDRFSGSKSGTSASLAISGLRSEDEADYYCSAWDGSLSRPLFGGGTKVTVL",> 2 µg/mL,≤ 2 µg/mL,0.6 µg/mL,3 µg/mL,2 µg/mL,0.06 µg/mL,0%,0%,0%,100%,0%,0%,
